Molecular target: T1, TLR4:Fc fusion protein (UniProt O00206 24-631)
T1 construct: The composition is not described beyond 'the related TLR4:Fc'; also called the TLR4 fusion protein; not shown: Fc part; not described for TLR4:Fc (only 'related' to TLR2:Fc, which carries mouse IgG2a Fc)
Experiment: ELISA, Fc fusion plated on plastic, biotinylated ligand as probe, anti-biotin-HRP detection

T1 sequence (O00206 24-631 limits assumed): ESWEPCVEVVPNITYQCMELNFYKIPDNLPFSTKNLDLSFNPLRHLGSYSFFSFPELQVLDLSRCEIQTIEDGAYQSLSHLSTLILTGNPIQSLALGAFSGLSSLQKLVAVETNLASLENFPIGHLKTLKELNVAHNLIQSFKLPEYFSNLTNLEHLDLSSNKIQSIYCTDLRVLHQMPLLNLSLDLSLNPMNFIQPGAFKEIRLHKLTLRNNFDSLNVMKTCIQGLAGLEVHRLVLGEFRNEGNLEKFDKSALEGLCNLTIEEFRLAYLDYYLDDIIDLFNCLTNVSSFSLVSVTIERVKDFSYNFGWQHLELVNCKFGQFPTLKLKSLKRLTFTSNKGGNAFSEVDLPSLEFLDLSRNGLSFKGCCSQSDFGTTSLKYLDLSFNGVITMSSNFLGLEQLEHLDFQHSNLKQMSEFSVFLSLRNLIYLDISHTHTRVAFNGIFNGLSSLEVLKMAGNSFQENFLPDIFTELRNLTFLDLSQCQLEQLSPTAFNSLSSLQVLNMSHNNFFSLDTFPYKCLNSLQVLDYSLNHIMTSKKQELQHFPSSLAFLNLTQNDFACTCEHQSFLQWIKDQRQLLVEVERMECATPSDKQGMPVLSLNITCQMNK

B1: PorinB from Neisseria meningitidis (ligand)
chain: DVTLYGTIKAGVETSRSVFHQNGQVTEVTTATGIVDLGSKIGFKGQEDLGNGLKAIWQVEQKASIAGTDSGWGNRQSFIGLKGGFGKLRVGRLNSVLKDTGDINPWDSKSDYLGVNKIAEPEARLISVRYDSPEFAGLSGSVQYALNDNAGRHNSESYHAGFNYKNGGFFVQYGGAYKRHHQVQEGLNIEKYQIHRLVSGYDNDALYASVAVQQQDAKLTDASNSHNSQTEVAATLAYRFGNVTPRVSYAHGFKGLVDDADIGNEYDQVVVGAEYDFSKRTSALVSAGWLQEGKGENKFVATAGGVGLRHKF
modifications: biotinylated in the binding assays (sites not given); not stated as biotinylated in the reporter assay
notes: also called biotinylated PorinB; biotinylated Porin
B1: no binding.

Source: US20060099650A1 (UNIVERSITY OF MASSACHUSETTS, published 2006)
